Test results published in publication PMC6629125, “Lysyl oxidase–like 2 (LOXL2)–mediated cross-linking of tropoelastin” (The FASEB Journal, 2019).

Target: T1, full-length lysyl oxidase-like 2 (FL-LOXL2), recombinant human (human, UniProt Q9Y4K0 26-774)
T1 construct: Lysyl oxidase-like 2 (LOXL2), human, full-length cDNA in pcDNA3.1-myc-His, amplified from the start ATG; the protein was secreted by CHO cells; also called LOX-like 2; source: DHFR-deficient CHO cells, transfected, secreted into Opti-MEM; purified (HisTrap, gel filtration)
T1 sequence (looked up): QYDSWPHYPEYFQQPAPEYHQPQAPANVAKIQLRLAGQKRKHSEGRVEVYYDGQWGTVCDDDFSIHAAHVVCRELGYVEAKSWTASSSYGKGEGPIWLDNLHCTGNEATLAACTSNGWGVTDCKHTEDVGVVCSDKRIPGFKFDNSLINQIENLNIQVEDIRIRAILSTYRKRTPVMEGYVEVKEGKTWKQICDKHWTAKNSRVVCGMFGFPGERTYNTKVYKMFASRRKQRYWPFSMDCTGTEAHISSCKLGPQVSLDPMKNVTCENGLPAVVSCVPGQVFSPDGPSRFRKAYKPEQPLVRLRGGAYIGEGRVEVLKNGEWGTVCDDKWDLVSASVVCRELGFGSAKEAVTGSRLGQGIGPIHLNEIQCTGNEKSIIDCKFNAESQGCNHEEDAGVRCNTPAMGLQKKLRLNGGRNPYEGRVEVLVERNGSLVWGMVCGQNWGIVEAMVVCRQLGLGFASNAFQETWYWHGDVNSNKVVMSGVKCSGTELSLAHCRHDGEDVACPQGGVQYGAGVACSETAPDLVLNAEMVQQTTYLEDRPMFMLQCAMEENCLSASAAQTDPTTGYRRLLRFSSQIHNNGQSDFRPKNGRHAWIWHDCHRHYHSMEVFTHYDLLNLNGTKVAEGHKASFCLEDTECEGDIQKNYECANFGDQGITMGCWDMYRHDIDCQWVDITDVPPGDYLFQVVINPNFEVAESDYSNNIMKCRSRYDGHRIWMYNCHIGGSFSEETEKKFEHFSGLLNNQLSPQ
Experiment: SPR; ProteOn XPR36; LOXL2 amine-coupled on a GLC chip; TE as analyte, serial 1:1 dilution from 830 nM; 10 mM Na-HEPES, 150 mM NaCl, 2 mM CaCl2, 0.05% Tween 20, pH 7.4, 25°C; steady-state analysis
Conditions: both partners purified

B1: human tropoelastin, isoform 2 (natural protein, UniProt P15502-2 27-724, looked up)
chain: GGVPGAIPGGVPGGVFYPGAGLGALGGGALGPGGKPLKPVPGGLAGAGLGAGLGAFPAVTFPGALVPGGVADAAAAYKAAKAGAGLGGVPGVGGLGVSAGAVVPQPGAGVKPGKVPGVGLPGVYPGGVLPGARFPGVGVLPGVPTGAGVKPKAPGVGGAFAGIPGVGPFGGPQPGVPLGYPIKAPKLPGGYGLPYTTGKLPYGYGPGGVAGAAGKAGYPTGTGVGPQAAAAAAAKAAAKFGAGAAGVLPGVGGAGVPGVPGAIPGIGGIAGVGTPAAAAAAAAAAKAAKYGAAAGLVPGGPGFGPGVVGVPGAGVPGVGVPGAGIPVVPGAGIPGAAVPGVVSPEAAAKAAAKAAKYGARPGVGVGGIPTYGVGAGGFPGFGVGVGGIPGVAGVPGVGGVPGVGGVPGVGISPEAQAAAAAKAAKYGVGTPAAAAAKAAAKAAQFGLVPGVGVAPGVGVAPGVGVAPGVGLAPGVGVAPGVGVAPGVGVAPGIGPGGVAAAAKSAAKVAAKAQLRAAAGLGAGIPGLGVGVGVPGLGVGAGVPGLGVGAGVPGFGAVPGALAAAKAAKYGAAVPGVLGGLGALGGVGIPGGVVGAGPAAAAAAAKAAAKAAQFGLVGAAGLGGLGVGGLGVPGVGGLGGIPPAAAAKAAKYGAAGLGGVLGGAGQFPLGGVAARPGFGLSPIFPGGACLGKACGRKRK
notes: also called TE; source: E. coli, purified (acetone/buffer extraction, filtration, dialysis, freeze drying)
Q: B1 was tested. Which Kd did it give?
A: 146 nM
